Common to all, as to assay: BLI, mAb on Protein A or AMC2 sensor, 1:1 fit
For orientation: BLI is a label-free optical method that tracks binding on a fibre tip over time.

Assay [1] concerns the target WT-F-Trimer (respiratory syncytial virus, subtype not given).
Assay [2] deals with SCB-1019T(A) (respiratory syncytial virus subtype A (A2 strain)).
Assay [3] has as its target commercial GSK vaccine F protein control.
For assay [4], the target named is SCB-1019T(B) (respiratory syncytial virus subtype B (Australian RSV B strain)).

Five substances from EP4810057A1 can be followed below.

With AM22 (antibody), the Kd in assay [1] was under 0.001 nM; in assay [2], 0.209 nM; in assay [3], 0.644 nM; in assay [4], 0.495 nM. Also, the RLU(nm) in assay [1] worked out at 0.123 nm; in assay [2], 1.13 nm; in assay [3] it was 1.42 nm; in assay [4], 1.1 nm. The koff was under 1e-07 s⁻¹ in assay [1], 2.1e-05 s⁻¹ in assay [2], 0.000196 s⁻¹ in assay [3] and 3.99e-05 s⁻¹ in assay [4]. Also, the kon in assay [3] is 304000 M⁻¹ s⁻¹; in assay [4], 80700 M⁻¹ s⁻¹.

With hRSV90 (antibody), in assay [1], the Kd amounted to 12.7 nM, the RLU(nm) came out at 0.0884 nm, the dissociation rate constant (koff) is 0.000271 s⁻¹ and the kon was determined as 21400 M⁻¹ s⁻¹. In assay [2], this substance returned a dissociation constant (Kd) of under 0.001 nM, an RLU(nm) of 0.928 nm and a koff of under 1e-07 s⁻¹. In assay [3], this substance came in with a Kd of 0.771 nM, an RLU(nm) of 1.03 nm, a dissociation rate constant (koff) of 0.000218 s⁻¹ and a kon of 282000 M⁻¹ s⁻¹. In assay [4], the Kd is 1.94 nM, the RLU(nm) was determined as 0.068 nm, the koff was 0.00153 s⁻¹ and the kon is 788000 M⁻¹ s⁻¹.

Regarding D25 (antibody), in assay [1], the Kd is under 0.001 nM, the RLU(nm) came out at 0.266 nm, the off-rate constant (koff) was under 1e-07 s⁻¹ and the kon worked out at 12100 M⁻¹ s⁻¹. In assay [2], this substance registered a Kd of 0.114 nM, an RLU(nm) of 1.19 nm, a koff of 3.38e-05 s⁻¹ and a kon of 296000 M⁻¹ s⁻¹. In assay [3], this substance displayed a dissociation constant (Kd) of 0.221 nM, an RLU(nm) of 1.11 nm, a koff of 0.000104 s⁻¹ and a kon of 472000 M⁻¹ s⁻¹. In assay [4], this substance registered a Kd of 0.247 nM, an RLU(nm) of 1.5 nm and a koff of 0.000112 s⁻¹.

For the substance AM14 (antibody), the RLU(nm) was determined as 0 nm in assay [1], 0.693 nm in assay [2], 1.34 nm in assay [3] and 0.534 nm in assay [4]. The figures for the Kd in assay [2], in assay [3] and in assay [4] were 0.382 nM, 0.484 nM and 0.2 nM, respectively. Also, the results for the koff in assay [2], in assay [3] and in assay [4] were 5.67e-05 s⁻¹, 0.000364 s⁻¹ and 4.43e-05 s⁻¹, respectively. This substance also registered a kon in assay [4] of 222000 M⁻¹ s⁻¹.

In the case of MPE8 (antibody), the Kd in assay [1] is 22.1 nM; in assay [2], under 0.001 nM; in assay [3] it was 2.22 nM; in assay [4] it was 0.771 nM. Further, the RLU(nm) in assay [1] amounted to 0.0968 nm; in assay [2], 0.59 nm; in assay [3] it was 0.815 nm; in assay [4], 0.672 nm. For the same substance, the off-rate constant (koff) in assay [1] was 0.000226 s⁻¹; in assay [2], under 1e-07 s⁻¹; in assay [3], 0.000353 s⁻¹; in assay [4] it was 3.43e-05 s⁻¹. The substance further came in with a kon in assay [2] of 4.12e+06 M⁻¹ s⁻¹.

What is called Kd is the concentration at which binding is half-saturated. A lower Kd goes with tighter binding. Usually koff stands for the rate constant with which the complex falls apart. The low end stands for a long-lived complex, the high end for a short-lived complex. As usually defined, the kon is the second-order rate constant of association. A low value points to slower complex formation.
